Measured values as given in US20220265769A1 (GEISINGER HEALTH, published 2022).

Legend:
TBX3 = molecular target: T1, TBX3 (human, UniProt O15119 1-743, limits assumed); experiment: IP and immunoblot, primary human fibroblasts
T1 sequence (looked up): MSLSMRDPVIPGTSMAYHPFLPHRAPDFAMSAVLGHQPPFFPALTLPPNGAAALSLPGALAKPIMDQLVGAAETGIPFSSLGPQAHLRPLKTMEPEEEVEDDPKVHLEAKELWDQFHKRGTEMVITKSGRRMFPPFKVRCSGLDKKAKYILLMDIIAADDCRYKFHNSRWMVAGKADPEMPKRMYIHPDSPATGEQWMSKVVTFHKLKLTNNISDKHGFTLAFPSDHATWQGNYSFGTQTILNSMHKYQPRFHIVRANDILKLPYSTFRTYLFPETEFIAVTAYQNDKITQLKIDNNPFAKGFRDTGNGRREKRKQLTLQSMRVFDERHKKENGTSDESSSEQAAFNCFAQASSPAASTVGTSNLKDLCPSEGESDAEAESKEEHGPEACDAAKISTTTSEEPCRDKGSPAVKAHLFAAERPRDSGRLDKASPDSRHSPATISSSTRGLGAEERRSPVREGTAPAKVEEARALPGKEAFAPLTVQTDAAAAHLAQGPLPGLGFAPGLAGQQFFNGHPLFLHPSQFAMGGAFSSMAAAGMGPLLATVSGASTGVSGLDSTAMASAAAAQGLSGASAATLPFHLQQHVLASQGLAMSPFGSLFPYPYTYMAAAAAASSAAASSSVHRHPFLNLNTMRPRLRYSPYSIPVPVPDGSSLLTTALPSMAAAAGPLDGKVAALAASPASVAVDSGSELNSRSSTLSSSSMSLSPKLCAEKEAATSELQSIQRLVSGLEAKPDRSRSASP

EZH2 = EZH2 (human, UniProt Q15910 1-746, limits assumed); experiment: IP and immunoblot, T47D cells and primary human fibroblasts
EZH2, sequence (Q15910 whole entry): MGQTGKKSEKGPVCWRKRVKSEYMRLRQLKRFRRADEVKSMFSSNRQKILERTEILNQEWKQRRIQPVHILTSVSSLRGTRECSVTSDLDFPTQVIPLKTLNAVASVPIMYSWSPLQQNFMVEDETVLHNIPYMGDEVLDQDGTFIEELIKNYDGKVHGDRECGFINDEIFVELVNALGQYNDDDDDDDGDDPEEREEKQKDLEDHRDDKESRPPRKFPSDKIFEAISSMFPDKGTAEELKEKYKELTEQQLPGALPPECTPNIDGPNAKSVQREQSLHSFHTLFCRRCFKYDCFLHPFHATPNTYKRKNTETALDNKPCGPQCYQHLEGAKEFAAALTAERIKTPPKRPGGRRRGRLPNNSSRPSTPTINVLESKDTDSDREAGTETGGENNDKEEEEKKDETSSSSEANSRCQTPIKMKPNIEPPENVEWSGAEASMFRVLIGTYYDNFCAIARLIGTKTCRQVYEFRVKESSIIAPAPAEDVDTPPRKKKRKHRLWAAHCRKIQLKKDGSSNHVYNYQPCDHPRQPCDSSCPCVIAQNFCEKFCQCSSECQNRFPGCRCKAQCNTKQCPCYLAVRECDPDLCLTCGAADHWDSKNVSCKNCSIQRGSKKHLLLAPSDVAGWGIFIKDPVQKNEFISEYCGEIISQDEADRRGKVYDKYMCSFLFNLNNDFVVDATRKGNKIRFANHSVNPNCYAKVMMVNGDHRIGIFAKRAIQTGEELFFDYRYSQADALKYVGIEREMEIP

estrogen receptor (ERα) = molecular target: T2, estrogen receptor (ERα) (human, UniProt P03372 1-595); experiment: IP and immunoblot, T47D, MDA-MB231 and PME cells (FIG. 14F)
T2 construct: also called ESR1
T2 sequence (looked up): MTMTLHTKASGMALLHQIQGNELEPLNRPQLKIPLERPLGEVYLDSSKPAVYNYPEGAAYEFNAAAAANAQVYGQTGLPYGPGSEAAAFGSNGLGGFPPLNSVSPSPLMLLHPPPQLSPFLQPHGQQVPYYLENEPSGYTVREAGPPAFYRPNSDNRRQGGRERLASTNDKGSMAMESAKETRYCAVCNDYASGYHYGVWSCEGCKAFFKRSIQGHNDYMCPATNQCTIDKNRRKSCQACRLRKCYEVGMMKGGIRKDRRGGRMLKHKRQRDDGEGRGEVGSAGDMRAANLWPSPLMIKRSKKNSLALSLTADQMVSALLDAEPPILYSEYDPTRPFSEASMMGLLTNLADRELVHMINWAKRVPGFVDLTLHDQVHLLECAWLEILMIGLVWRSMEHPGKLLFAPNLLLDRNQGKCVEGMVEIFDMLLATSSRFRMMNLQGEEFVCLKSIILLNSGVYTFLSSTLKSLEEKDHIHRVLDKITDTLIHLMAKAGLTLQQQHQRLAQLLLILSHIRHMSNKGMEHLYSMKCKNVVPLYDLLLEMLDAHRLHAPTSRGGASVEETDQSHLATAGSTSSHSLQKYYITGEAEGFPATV

HCF-1 = HCF-1 (human, UniProt P51610 2-2035, limits assumed); experiment: as above
HCF-1, sequence (P51610 2-2035 limits assumed): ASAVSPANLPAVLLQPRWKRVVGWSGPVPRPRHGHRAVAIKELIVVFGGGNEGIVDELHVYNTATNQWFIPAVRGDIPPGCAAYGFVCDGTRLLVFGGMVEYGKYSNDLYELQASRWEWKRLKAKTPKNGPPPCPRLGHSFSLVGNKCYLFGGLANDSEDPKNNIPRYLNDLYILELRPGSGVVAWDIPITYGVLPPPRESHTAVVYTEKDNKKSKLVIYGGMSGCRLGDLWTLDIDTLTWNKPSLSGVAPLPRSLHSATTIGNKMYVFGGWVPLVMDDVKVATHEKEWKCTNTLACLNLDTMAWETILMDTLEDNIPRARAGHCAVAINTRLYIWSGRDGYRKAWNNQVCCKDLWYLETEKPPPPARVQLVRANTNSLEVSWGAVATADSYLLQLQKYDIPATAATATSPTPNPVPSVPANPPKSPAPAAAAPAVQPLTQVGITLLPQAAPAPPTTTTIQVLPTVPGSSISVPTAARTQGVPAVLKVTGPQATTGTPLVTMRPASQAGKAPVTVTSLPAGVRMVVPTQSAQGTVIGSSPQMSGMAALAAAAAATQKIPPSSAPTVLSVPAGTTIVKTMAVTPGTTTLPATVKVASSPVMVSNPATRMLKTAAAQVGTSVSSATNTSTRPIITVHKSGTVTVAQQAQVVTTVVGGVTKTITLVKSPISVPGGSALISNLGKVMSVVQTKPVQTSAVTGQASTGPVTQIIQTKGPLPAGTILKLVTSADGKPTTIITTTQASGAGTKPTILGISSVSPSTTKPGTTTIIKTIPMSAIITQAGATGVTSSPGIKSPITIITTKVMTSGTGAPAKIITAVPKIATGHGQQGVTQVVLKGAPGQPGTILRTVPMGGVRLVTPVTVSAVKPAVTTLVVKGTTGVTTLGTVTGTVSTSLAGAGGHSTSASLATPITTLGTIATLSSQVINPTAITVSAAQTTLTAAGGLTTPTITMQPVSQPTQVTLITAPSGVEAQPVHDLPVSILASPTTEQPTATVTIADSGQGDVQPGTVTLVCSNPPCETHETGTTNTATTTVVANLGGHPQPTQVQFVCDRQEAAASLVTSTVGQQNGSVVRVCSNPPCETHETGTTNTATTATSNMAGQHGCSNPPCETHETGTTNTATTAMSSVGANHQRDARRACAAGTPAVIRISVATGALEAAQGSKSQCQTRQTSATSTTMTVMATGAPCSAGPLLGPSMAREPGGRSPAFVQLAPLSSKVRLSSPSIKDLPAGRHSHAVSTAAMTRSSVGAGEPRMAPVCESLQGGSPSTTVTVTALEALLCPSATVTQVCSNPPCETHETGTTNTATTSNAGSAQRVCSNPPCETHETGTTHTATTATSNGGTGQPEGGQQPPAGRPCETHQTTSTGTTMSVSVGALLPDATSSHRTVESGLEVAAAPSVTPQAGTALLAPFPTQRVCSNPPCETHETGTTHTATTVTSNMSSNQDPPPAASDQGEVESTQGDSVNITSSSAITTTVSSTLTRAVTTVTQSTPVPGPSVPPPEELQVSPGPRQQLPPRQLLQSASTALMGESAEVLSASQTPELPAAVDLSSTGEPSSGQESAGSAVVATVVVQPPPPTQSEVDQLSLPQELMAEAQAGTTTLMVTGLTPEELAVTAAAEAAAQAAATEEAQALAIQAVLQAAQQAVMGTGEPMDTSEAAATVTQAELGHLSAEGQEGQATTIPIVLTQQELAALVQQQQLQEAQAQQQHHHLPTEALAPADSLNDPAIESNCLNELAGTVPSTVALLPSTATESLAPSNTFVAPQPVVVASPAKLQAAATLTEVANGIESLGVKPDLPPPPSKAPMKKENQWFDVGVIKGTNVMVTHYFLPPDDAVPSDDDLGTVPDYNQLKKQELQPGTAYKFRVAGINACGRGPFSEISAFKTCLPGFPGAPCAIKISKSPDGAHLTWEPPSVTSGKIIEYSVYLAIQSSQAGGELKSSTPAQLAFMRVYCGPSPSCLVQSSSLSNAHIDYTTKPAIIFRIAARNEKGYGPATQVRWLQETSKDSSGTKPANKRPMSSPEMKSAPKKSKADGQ

binding result (TBX3): binds
binding result (EZH2): binds
binding result (estrogen receptor (ERα)): no binding
binding result (HCF-1): no binding
B1: CAPERα (Coactivator of AP1 and Estrogen Receptor) (other, human, UniProt Q14498 2-530, looked up)
chain: ADDIDIEAMLEAPYKKDENKLSSANGHEERSKKRKKSKSRSRSHERKRSKSKERKRSRDRERKKSKSRERKRSRSKERRRSRSRSRDRRFRGRYRSPYSGPKFNSAIRGKIGLPHSIKLSRRRSRSKSPFRKDKSPVREPIDNLTPEERDARTVFCMQLAARIRPRDLEEFFSTVGKVRDVRMISDRNSRRSKGIAYVEFVDVSSVPLAIGLTGQRVLGVPIIVQASQAEKNRAAAMANNLQKGSAGPMRLYVGSLHFNITEDMLRGIFEPFGRIESIQLMMDSETGRSKGYGFITFSDSECAKKALEQLNGFELAGRPMKVGHVTERTDASSASSFLDSDELERTGIDLGTTGRLQLMARLAEGTGLQIPPAAQQALQMSGSLAFGAVAEFSFVIDLQTRLSQQTEASALAAAASVQPLATQCFQLSNMFNPQTEEEVGWDTEIKDDVIEECNKHGGVIHIYVDKNSAQGNVYVKCPSIAAAIAAVNALHGRWFAGKMITAAYVPLPTYHNLFPDSMTATQLLVPSRR
notes: Endogenous protein immunoprecipitated or blotted from Dignam lysates; also called RBM39
